According to paper doi:10.1101/2024.03.04.583391 (bioRxiv, 2024):

Target: T1, DIP-β-G, recombinant protein for SPR (Drosophila melanogaster)
T1 chain: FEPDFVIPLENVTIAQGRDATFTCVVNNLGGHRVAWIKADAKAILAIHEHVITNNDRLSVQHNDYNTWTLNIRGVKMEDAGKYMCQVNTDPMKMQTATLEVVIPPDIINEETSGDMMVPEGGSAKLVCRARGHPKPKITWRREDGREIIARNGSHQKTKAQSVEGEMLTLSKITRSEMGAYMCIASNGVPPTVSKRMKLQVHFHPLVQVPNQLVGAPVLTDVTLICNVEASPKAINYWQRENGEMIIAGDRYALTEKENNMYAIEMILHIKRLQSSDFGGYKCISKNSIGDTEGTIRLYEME
Experiment: SPR

B1: Dpr10-A, recombinant protein for SPR (domain or fragment, Drosophila melanogaster)
chain: WNEPYFDLTMPRNITSLVGKSAYLGCRVKHLGNKTVAWIRHRDLHILTVGTYTYTTDQRFQTSYHRDIDEWTLQIKWAQQRDAGVYECQISTQPVRSYSVNLNIVDLIDAETSDIMQQYYNDDAFYIAENRVYQSSNDEFAGMFGPIQTVAVPTATILGGPDLYVDKGSTINLTCIIKFSPEPPTHIFWYHQDKVLSEETSGGRLKFKTIKSEETKSILLIYDADLLHSGKYSCYPSNTEIASIRVHVLQGE
- Kd: 5.76 µM
